Each sequence was assayed on Escherichia coli TOP10 (assay: shrunken log2 fold change of peptide-encoding DNA abundance (4.5 h post-induction vs induction); higher = less antimicrobial activity (less host growth inhibition)). Settings: time post-induction: 4.5 h; library: site-saturation at positions 5, 18, 19, 20.
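Note: peptides expressed intracellularly from a pBAD plasmid library in pooled LB shake-flask culture, induced with 0.3% L-arabinose, DNA abundance read by NGS, three biological replicates, DESeq2 with apeglm shrinkage.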

Sequence	shrunken log2 fold change
RRIRNRPPRLPRPRPRPVITPRP	-0.662
RRIRYRPPRLPRPRPRPCGAPRP	-0.324
RRIRTRPPRLPRPRPRPHIEPRP	-0.0284
RRIRARPPRLPRPRPRPWWCPRP	-0.0725
RRIRFRPPRLPRPRPRPWQYPRP	0.0191
RRIRPRPPRLPRPRPRPTPNPRP	0.579
RRIRFRPPRLPRPRPRPYTFPRP	-1.3
RRIRSRPPRLPRPRPRPRNAPRP	0.374
RRIRERPPRLPRPRPRPHMQPRP	-0.551
RRIRCRPPRLPRPRPRPCCDPRP	-0.27
RRIRERPPRLPRPRPRPRHQPRP	-0.164
RRIRFRPPRLPRPRPRPVPKPRP	-0.208
RRIRPRPPRLPRPRPRPFNEPRP	-0.347
RRIRGRPPRLPRPRPRPLGMPRP	0.575
RRIRTRPPRLPRPRPRPAYLPRP	-0.0925
RRIRVRPPRLPRPRPRPVWLPRP	0.276
RRIRARPPRLPRPRPRPFHQPRP	-0.211
RRIRMRPPRLPRPRPRPGIYPRP	-0.075
RRIRERPPRLPRPRPRPNDRPRP	-0.426
RRIRARPPRLPRPRPRPDKIPRP	0.299
RRIRGRPPRLPRPRPRPCFCPRP	0.609
RRIRLRPPRLPRPRPRPELEPRP	0.23
RRIRWRPPRLPRPRPRPKAPPRP	0.378

Sequence	shrunken log2 fold change
RRIRERPPRLPRPRPRPPTAPRP	0.0872
RRIRMRPPRLPRPRPRPKKPPRP	0.102
RRIRWRPPRLPRPRPRPHPWPRP	0.0859
RRIRIRPPRLPRPRPRPWPNPRP	-0.0754
RRIRIRPPRLPRPRPRPNKMPRP	-0.464
RRIRMRPPRLPRPRPRPPCEPRP	1.11
RRIRERPPRLPRPRPRPHSLPRP	-0.0176
RRIRDRPPRLPRPRPRPVMTPRP	0.374
RRIRRRPPRLPRPRPRPMTVPRP	-0.238
RRIRNRPPRLPRPRPRPVKIPRP	0.0539
RRIRIRPPRLPRPRPRPWFDPRP	-0.184
RRIRKRPPRLPRPRPRPNNLPRP	-0.218
RRIRDRPPRLPRPRPRPSIVPRP	-0.0831
RRIRLRPPRLPRPRPRPRGTPRP	0.0155
RRIRPRPPRLPRPRPRPANRPRP	-0.125
RRIRFRPPRLPRPRPRPFYYPRP	-0.777
RRIRQRPPRLPRPRPRPDIAPRP	0.111
RRIRLRPPRLPRPRPRPIMTPRP	-0.397
RRIRVRPPRLPRPRPRPVPCPRP	-0.162
RRIRARPPRLPRPRPRPFAKPRP	0.349
RRIRCRPPRLPRPRPRPMRHPRP	-0.0878
RRIRERPPRLPRPRPRPVYVPRP	-1.11
RRIRTRPPRLPRPRPRPEILPRP	0.0249

Sequence	shrunken log2 fold change
RRIRCRPPRLPRPRPRPKDCPRP	-0.0763
RRIRMRPPRLPRPRPRPKWQPRP	-0.0255
RRIRQRPPRLPRPRPRPQVDPRP	-0.0137
RRIRERPPRLPRPRPRPTLVPRP	-0.0681
RRIRYRPPRLPRPRPRPPTKPRP	0.444
RRIRNRPPRLPRPRPRPEHLPRP	0.0408
RRIRGRPPRLPRPRPRPKVQPRP	1.06
RRIRQRPPRLPRPRPRPLMVPRP	-0.13
RRIRQRPPRLPRPRPRPDNRPRP	-0.00104
RRIRARPPRLPRPRPRPPIWPRP	0.507
RRIRYRPPRLPRPRPRPTSWPRP	-0.138
RRIRHRPPRLPRPRPRPMIMPRP	-0.266
RRIRDRPPRLPRPRPRPFLTPRP	-0.0719
RRIRLRPPRLPRPRPRPRYGPRP	-0.0186
RRIRWRPPRLPRPRPRPSAYPRP	-0.549
RRIRIRPPRLPRPRPRPACNPRP	-0.363
RRIRIRPPRLPRPRPRPNDYPRP	-0.312
RRIRPRPPRLPRPRPRPFGCPRP	-0.144
RRIRKRPPRLPRPRPRPYKFPRP	-0.0374
RRIRERPPRLPRPRPRPAKIPRP	0.039
RRIRTRPPRLPRPRPRPEEVPRP	-0.0075
RRIRLRPPRLPRPRPRPIIDPRP	-0.256
RRIRKRPPRLPRPRPRPTPEPRP	0.611

Sequence	shrunken log2 fold change
RRIRPRPPRLPRPRPRPIAHPRP	0.125
RRIRARPPRLPRPRPRPCWFPRP	0.107
RRIRNRPPRLPRPRPRPGNTPRP	-0.896
RRIRERPPRLPRPRPRPYGPPRP	-1.02
RRIRGRPPRLPRPRPRPYAPPRP	0.116
RRIRARPPRLPRPRPRPHASPRP	-0.0111
RRIRIRPPRLPRPRPRPAKSPRP	-0.0109
RRIRYRPPRLPRPRPRPWCLPRP	-0.634
RRIRQRPPRLPRPRPRPWKYPRP	-0.149
RRIRYRPPRLPRPRPRPLHIPRP	-0.271
RRIRTRPPRLPRPRPRPSEEPRP	0.0771
RRIRYRPPRLPRPRPRPQSAPRP	-0.21
RRIRRRPPRLPRPRPRPPTKPRP	0.52
RRIRKRPPRLPRPRPRPRAWPRP	0.389
RRIRWRPPRLPRPRPRPCACPRP	0.0874
RRIRVRPPRLPRPRPRPWRQPRP	0.2
RRIRIRPPRLPRPRPRPQEDPRP	-0.0165
RRIRGRPPRLPRPRPRPKYHPRP	0.00515
RRIRQRPPRLPRPRPRPTYHPRP	-0.184
RRIRIRPPRLPRPRPRPTFVPRP	-0.582
RRIRTRPPRLPRPRPRPNCGPRP	0.0396
RRIRCRPPRLPRPRPRPTVRPRP	0.128

From the supplement of paper PMC9112550, “Optimization of the antimicrobial peptide Bac7 by deep mutational scanning” (BMC Biology, 2022)
